The results in this text go back to PMC9672333.

In this test the target is Omicron BA.1 spike RBD (UniProt P0DTC2) (SARS-CoV-2) (UniProt P0DTC2). Briefly: microfluidic diffusional sizing (MDS).

In turn, Casirivimab (antibody) had a fold reduction of binding affinity relative to wild type RBD above 100 fold.
Consider Tixagevimab Biosimilar (antibody), for which the fold reduction of binding affinity relative to wild type RBD was above 100 fold.
Substance Cilgavimab Biosimilar (antibody) displayed a fold reduction of binding affinity relative to wild type RBD above 100 fold.
